Patent publication US20230257726A1

Target: SARS-CoV-2 spike protein on spike pseudotyped lentivirus particles or authentic SARS-CoV-2 (SARS-CoV-2) (UniProt P0DTC2)
Experiment: cell-based or functional assay

## Wild type ACE2(614)-Fc (Fc fusion)
  IC50 (µg/ml), pseudovirus: 0.43 µg/mL
